These results are taken from article PMC3206007, “Crystal Structure of the Complex mAb 17.2 and the C-Terminal Region of Trypanosoma cruzi P2β Protein: Implications in Cross-Reactivity” (PLoS Neglected Tropical Diseases, 2011).

In the assay the target is T1, human β1 adrenergic receptor (Homo sapiens, UniProt P08588).
T1 construct: also called β1-AR; ß1-AR; source: HEK cells, stably transfected (HEK-β1), on cells
As to the kind of experiment: flow cytometry on cells; HEK and HEK-β1 cells incubated with mAb 17.2 (500 nM) 1 h at room temperature in supplemented DMEM; Cy3-conjugated goat anti-mouse IgG; propidium iodide to exclude dead cells. To be noted: one partner purified. (In general: A flow cytometer gives signals particle by particle.)

T1 sequence (P08588 whole entry): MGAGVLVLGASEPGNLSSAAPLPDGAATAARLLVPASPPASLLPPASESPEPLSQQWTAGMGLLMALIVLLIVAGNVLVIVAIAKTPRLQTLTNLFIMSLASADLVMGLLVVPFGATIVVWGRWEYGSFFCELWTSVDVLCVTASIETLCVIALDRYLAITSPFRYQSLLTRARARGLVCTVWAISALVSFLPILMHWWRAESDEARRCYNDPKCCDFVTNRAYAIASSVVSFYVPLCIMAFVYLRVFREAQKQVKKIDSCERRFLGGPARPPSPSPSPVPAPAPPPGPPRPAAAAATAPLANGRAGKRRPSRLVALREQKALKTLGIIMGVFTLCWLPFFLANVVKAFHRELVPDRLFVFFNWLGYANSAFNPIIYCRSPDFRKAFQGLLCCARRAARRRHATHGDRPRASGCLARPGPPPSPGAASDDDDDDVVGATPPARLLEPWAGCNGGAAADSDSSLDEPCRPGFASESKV

B1: murine monoclonal antibody 17.2 (antibody, V domains shown)
VH: EVQLEESGGRLVQPKGSLKLSCAASGFSFNTNAMNWVRQAPGKGLEWVARIRSKINNYSTYYADSVKDRFTISRDDSQSMLYLQMNNLKTEDTAMYYCVRGTTYWGQGTLVTVSA
VL: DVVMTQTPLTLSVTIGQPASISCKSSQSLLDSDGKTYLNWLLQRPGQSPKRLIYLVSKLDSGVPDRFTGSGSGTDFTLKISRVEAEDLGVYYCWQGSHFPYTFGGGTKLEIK
notes: variable and CH1 domains as the heavy chain of m1 (PDB 3SGE, 3SGD); the rest is the mouse IgG1 constant region, not in the entries; as the light chain of m1 (kappa; PDB 3SGE, 3SGD); Whole IgG1, kappa; also called mAb 17.2; source: purified from ascitic fluid (40% ammonium sulphate, DEAE-Sephacel)
Regarding B1, the binding result was “binds”.
